Experimental data reported in patent publication CN111333724A (INST MILITARY MEDICINE ACADEMY MILITARY SCIENCES PLA, dated 2020).

Columns and labels:
His-SEB蛋白 [1] = target: T1, His-SEB蛋白 (Staphylococcus aureus, UniProt P01552 28-266)
T1 sequence: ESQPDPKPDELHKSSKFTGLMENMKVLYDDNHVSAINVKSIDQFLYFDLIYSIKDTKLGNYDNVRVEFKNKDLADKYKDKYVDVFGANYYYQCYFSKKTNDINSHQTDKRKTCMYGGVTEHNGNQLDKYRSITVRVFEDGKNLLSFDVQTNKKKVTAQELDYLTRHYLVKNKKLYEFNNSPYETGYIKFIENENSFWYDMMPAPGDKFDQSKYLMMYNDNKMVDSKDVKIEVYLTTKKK

His-SEB蛋白 [2] = target: T1, His-SEB蛋白; remark: listed apart in the source

B1: YG11-1抗体 (antibody, V domains shown)
VH: QVQLVESGGGVVQPGRSLRLSCAASGFSLSDHAVHWVRQAPGKGLEWVALISYDGSDKYYKDSVKGRFTISRDNPKNTLYLQMTSLKPEDTAVYYCARQGGNKNINYFFQYLDVWGQGTMVTVSS
VL: DIVMTQTPSSLSASVGDRVNISCRASQTISNHLNWYLQKPGKAPKLLIYDASSLESGVPSRFSGSGSGTDFTLTISSLQPEDFATYYCQQFINYPPTFGPGTKLEIKR
B1 showed a Kd (His-SEB蛋白 [1]) of 16.6 nM, a koff (His-SEB蛋白 [1]) of 0.0169 s⁻¹ and a kon (His-SEB蛋白 [1]) of 1.02e+06 M⁻¹ s⁻¹. For the same binder, the EC50 (His-SEB蛋白 [2]) was 0.013 µg/mL.
